Laboratory results from US6723838.

Molecular target: purified H-ras GST fusion protein [GST: P08515]
Sequence (P08515 whole entry, looked up, the tested form may be a part): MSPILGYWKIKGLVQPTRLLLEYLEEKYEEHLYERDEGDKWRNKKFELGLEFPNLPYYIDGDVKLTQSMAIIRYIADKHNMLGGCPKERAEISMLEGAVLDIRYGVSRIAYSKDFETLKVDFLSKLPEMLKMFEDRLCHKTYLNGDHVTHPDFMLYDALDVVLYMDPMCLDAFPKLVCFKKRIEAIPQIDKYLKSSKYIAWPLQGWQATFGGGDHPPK

B1: GST fusion protein of the GAP domain (266-521) of SYNGAP (protein)
chain: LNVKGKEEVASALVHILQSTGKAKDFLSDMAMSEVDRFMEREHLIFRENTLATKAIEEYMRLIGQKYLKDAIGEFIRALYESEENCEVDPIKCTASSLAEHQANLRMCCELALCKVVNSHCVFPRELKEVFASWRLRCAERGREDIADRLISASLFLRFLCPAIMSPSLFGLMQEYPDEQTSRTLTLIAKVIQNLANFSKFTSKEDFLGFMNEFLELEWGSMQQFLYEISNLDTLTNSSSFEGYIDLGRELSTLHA
Question: How did the “GTPase activity of Ras ([gamma-32P]-GTP filter assay)” value turn out when B1 was run?
Answer: The value was “addition of the GST fusion protein of the GAP domain of SYNGAP dramatically stimulated the GTPase activity of Ras”.
